# Bridges are numbered along the chain shown (N, C = ends). Where no end group is shown, it is not given here. [ ]: non-standard residue; d: D form. Aib = CC(C)(N)C(=O)O
# Molecular target: glucagon receptors (Homo sapiens, UniProt P47871)
# Experiment: In vitro activity of glucagon analogs relative to native glucagon
# Assay type: cell-based
# Conditions: relative to native glucagon (SEQ ID NO: 1)
# Procedure: The glucagon analogs were synthesized with reference to Korean Patent Publication Nos. 10-2016-0082482, 10-2017-003466, and 10-2018-0002544, and pl and in vitro activity thereof were measured.
# glucagon receptors, sequence (P47871 26-477): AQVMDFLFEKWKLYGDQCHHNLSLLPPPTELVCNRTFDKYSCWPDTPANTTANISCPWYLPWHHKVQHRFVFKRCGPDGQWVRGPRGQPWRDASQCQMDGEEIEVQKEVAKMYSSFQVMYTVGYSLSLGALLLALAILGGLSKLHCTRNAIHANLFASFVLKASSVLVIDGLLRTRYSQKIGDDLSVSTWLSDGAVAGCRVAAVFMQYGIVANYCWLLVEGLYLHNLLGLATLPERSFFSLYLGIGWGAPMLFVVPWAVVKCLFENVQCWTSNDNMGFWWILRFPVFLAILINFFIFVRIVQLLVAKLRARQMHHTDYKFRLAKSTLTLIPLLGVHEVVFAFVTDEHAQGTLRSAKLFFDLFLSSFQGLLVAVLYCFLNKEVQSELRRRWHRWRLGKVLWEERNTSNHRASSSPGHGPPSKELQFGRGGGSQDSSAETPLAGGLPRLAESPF
row,Substance,"In vitro activity (relative activity to SEQ ID NO: 1, %)"
1,-SQGTFTSDYSKYLDECRAKEFVQWLMNT (lactam 15-19; also: name begins with '-' (N-terminal residue not shown)) [SEQ ID NO: 32],0.7%
2,HSQGTFTSDYSKYLDCDRAQDFVQWLMNT (glucagon derivative) [SEQ ID NO: 2],0.6%
3,HSQGTFTSDYSKYLDCERAQDFVQWLMNT (glucagon derivative) [SEQ ID NO: 3],6.1%
4,HSQGTFTSDYSKYLDSCDAQDFVQWLMNT (glucagon derivative) [SEQ ID NO: 4],<0.1%
5,HSQGTFTSDYSKYLDSCEADDFVQWLMNT (glucagon derivative) [SEQ ID NO: 6],<0.1%
6,HSQGTFTSDYSKYLDSCEAQDFVQWLMNT (glucagon derivative) [SEQ ID NO: 5],0.3%
7,WXQGTFTSDYSKCLDERRAKDFVQWLMNT (W[Aib]QGTFTSDYSKCLDERRAKDFVQWLMNT; lactam 16-20) [SEQ ID NO: 30],0.3%
8,WXQGTFTSDYSKYCDERRAKEFVQWLMNT (W[Aib]QGTFTSDYSKYCDERRAKEFVQWLMNT; lactam 16-20) [SEQ ID NO: 34],0.2%
9,WXQGTFTSDYSKYLDECRAKDFVQWLMNT (W[Aib]QGTFTSDYSKYLDECRAKDFVQWLMNT; lactam 16-20) [SEQ ID NO: 26],1.0%
10,WXQGTFVSDYSKYLDECRAKDFVQWLMNT (W[Aib]QGTFVSDYSKYLDECRAKDFVQWLMNT; lactam 16-20) [SEQ ID NO: 28],<0.1%
11,YSQGTFTSDYSKYLDSCEADDFVQWLMNT (glucagon derivative) [SEQ ID NO: 7],<0.1%
12,YXQGTFCSDYSKYLDERRAKDFVQWLMNT (Y[Aib]QGTFCSDYSKYLDERRAKDFVQWLMNT; lactam 16-20) [SEQ ID NO: 41],45.2%
13,YXQGTFCSDYSKYLDERRAKEFVQWLMNT (Y[Aib]QGTFCSDYSKYLDERRAKEFVQWLMNT; lactam 16-20) [SEQ ID NO: 38],167.3%
14,YXQGTFCSDYSKYLDSRRAQDFVQWLMNT (Y[Aib]QGTFCSDYSKYLDSRRAQDFVQWLMNT) [SEQ ID NO: 42],37.9%
15,YXQGTFTSDCSKYLDERRAKEFVQWLMNT (Y[Aib]QGTFTSDCSKYLDERRAKEFVQWLMNT; lactam 16-20) [SEQ ID NO: 36],9.9%
16,YXQGTFTSDCSKYLDSRRAQDFVQWLMNT (Y[Aib]QGTFTSDCSKYLDSRRAQDFVQWLMNT) [SEQ ID NO: 43],1.6%
17,YXQGTFTSDYSCYLDSRRAQDFVQWLMNT (Y[Aib]QGTFTSDYSCYLDSRRAQDFVQWLMNT) [SEQ ID NO: 13],5.2%
18,YXQGTFTSDYSKCLDEKRAKEFVQWLMNT (Y[Aib]QGTFTSDYSKCLDEKRAKEFVQWLMNT; lactam 16-20) [SEQ ID NO: 24],58.0%
19,YXQGTFTSDYSKCLDERRAKDFVQWLMNT (Y[Aib]QGTFTSDYSKCLDERRAKDFVQWLMNT; lactam 16-20) [SEQ ID NO: 29],61.3%
20,YXQGTFTSDYSKYCDEKRAKEFVQWLMNT (Y[Aib]QGTFTSDYSKYCDEKRAKEFVQWLMNT; lactam 16-20) [SEQ ID NO: 23],76.8%
21,YXQGTFTSDYSKYCDERRAKEFVQWLMNT (Y[Aib]QGTFTSDYSKYCDERRAKEFVQWLMNT; lactam 16-20) [SEQ ID NO: 35],17.7%
22,YXQGTFTSDYSKYLCEKRAKEFVQWLMNT (Y[Aib]QGTFTSDYSKYLCEKRAKEFVQWLMNT; lactam 16-20) [SEQ ID NO: 19],12.1%

row,Substance,"In vitro activity (relative activity to SEQ ID NO: 1, %)"
1,YXQGTFTSDYSKYLCEKRAQDFVVWLMNT (Y[Aib]QGTFTSDYSKYLCEKRAQDFVVWLMNT) [SEQ ID NO: 15],1.1%
2,YXQGTFTSDYSKYLDCKRAKEFVQWLMNT (Y[Aib]QGTFTSDYSKYLDCKRAKEFVQWLMNT; lactam 17-21) [SEQ ID NO: 31],6.3%
3,"YXQGTFTSDYSKYLDCKRAKEFVQWLMNT [SEQ ID NO: 14] (Y[Aib]QGTFTSDYSKYLDCKRAKEFVQWLMNT; not fully specified (bridges); also: lactam ring between underlined residues, places not shown)",18.1%
4,YXQGTFTSDYSKYLDCRRAQVFVQWLMRT (Y[Aib]QGTFTSDYSKYLDCRRAQVFVQWLMRT) [SEQ ID NO: 16],4.2%
5,YXQGTFTSDYSKYLDCVRAQDFVQWLMRT (Y[Aib]QGTFTSDYSKYLDCVRAQDFVQWLMRT) [SEQ ID NO: 17],23.2%
6,YXQGTFTSDYSKYLDECRAKEFVQWLMNT (Y[Aib]QGTFTSDYSKYLDECRAKEFVQWLMNT; lactam 16-20) [SEQ ID NO: 20],299.7%
7,"YXQGTFTSDYSKYLDEKCAKEFVQWLMNT [SEQ ID NO: 11] (Y[Aib]QGTFTSDYSKYLDEKCAKEFVQWLMNT; not fully specified (bridges); also: lactam ring between underlined residues, places not shown)",4.6%
8,YXQGTFTSDYSKYLDEKCAKEFVQWLMNT [SEQ ID NO: 21] (Y[Aib]QGTFTSDYSKYLDEKCAKEFVQWLMNT; lactam 16-20),57.8%
9,YXQGTFTSDYSKYLDEKRAKCFVQWLMNT (Y[Aib]QGTFTSDYSKYLDEKRAKCFVQWLMNT; lactam 16-20) [SEQ ID NO: 25],46.9%
10,YXQGTFTSDYSKYLDEKRAKEFVQWLMNTC (Y[Aib]QGTFTSDYSKYLDEKRAKEFVQWLMNTC; lactam 16-20) [SEQ ID NO: 12],56.3%
11,YXQGTFTSDYSKYLDEKRCKEFVQWLMNT (Y[Aib]QGTFTSDYSKYLDEKRCKEFVQWLMNT; lactam 16-20) [SEQ ID NO: 22],147.8%
12,YXQGTFTSDYSKYLDERRAKEFVQWLMNTC (Y[Aib]QGTFTSDYSKYLDERRAKEFVQWLMNTC; lactam 16-20) [SEQ ID NO: 37],225.5%
13,YXQGTFTSDYSKYLDSCDADDFVVWLINT (Y[Aib]QGTFTSDYSKYLDSCDADDFVVWLINT) [SEQ ID NO: 10],<0.1%
14,YXQGTFTSDYSKYLDSCDAQDFVQWLINT (Y[Aib]QGTFTSDYSKYLDSCDAQDFVQWLINT) [SEQ ID NO: 8],<0.1%
15,YXQGTFTSDYSKYLDSCDAQDFVVWLINT (Y[Aib]QGTFTSDYSKYLDSCDAQDFVVWLINT) [SEQ ID NO: 9],<0.1%
16,YXQGTFTSDYSKYLDSRRACDFRLWLMNT (Y[Aib]QGTFTSDYSKYLDSRRACDFRLWLMNT) [SEQ ID NO: 18],<0.1%
17,YXQGTFTSDYSKYLDSRRAQDFVQWLMNT (X non-natural residue; glucagon derivative; (2) Xaa is aminoisobutyric acid (Aib)) [SEQ ID NO: 33],108.2%
18,YXQGTFTSDYSKYLDSRRAQDFVQWLMNTC (glucagon derivative; (2) Xaa is aminoisobutyric acid (Aib)) [SEQ ID NO: 44],75.4%
19,YXQGTFVSDCSKYLDERRAKDFVQWLMNT (Y[Aib]QGTFVSDCSKYLDERRAKDFVQWLMNT; lactam 16-20) [SEQ ID NO: 39],3.7%
20,YXQGTFVSDYSKYLDECRAKDFVQWLMNT (Y[Aib]QGTFVSDYSKYLDECRAKDFVQWLMNT; lactam 16-20) [SEQ ID NO: 27],93.6%
21,YXQGTFVSDYSKYLDERRAKDFVQWLMNTC (Y[Aib]QGTFVSDYSKYLDERRAKDFVQWLMNTC; lactam 16-20) [SEQ ID NO: 40],40.8%
